Results: patent publication US20090291890A1 (published 2009)
Numbering of substitutions follows the chain as printed. Names and notes keep the numbering of the source. Values joined by “and” are separate entries in the source; they are usually repeats but may differ in a detail not shown here. Equal entries are not always repeated. Values belong to the molecule of their own block, whether it stands above or below them.

Experiments:
[1] = target: Factor X (Homo sapiens (Human)) (UniProt P00742)
[2] = target: T1, Mesyl-dFPR-ACC
T1 sequence (peptide, N-terminal mesyl; D-Phe at position 1 (dF); C-terminal ACC fluorophore): FPR

[3] = target: Factor X (FX) (Homo sapiens (Human)) (UniProt P00742)
Factor X (FX) (Homo sapiens (Human)), sequence (P00742 41-488 limits assumed): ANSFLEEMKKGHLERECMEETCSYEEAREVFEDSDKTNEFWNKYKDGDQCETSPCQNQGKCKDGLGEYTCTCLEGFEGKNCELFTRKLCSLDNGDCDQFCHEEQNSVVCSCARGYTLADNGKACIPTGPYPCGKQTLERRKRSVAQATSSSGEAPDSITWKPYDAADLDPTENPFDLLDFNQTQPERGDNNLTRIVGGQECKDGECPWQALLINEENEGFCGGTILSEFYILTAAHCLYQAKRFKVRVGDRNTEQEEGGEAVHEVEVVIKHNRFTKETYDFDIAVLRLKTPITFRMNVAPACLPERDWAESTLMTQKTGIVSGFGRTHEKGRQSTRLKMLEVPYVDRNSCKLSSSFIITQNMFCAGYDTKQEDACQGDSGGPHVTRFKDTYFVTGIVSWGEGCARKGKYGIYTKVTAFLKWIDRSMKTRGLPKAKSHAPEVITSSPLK

Molecule: T128N/P129A/Q286R/M298Q/H373F-FVIIa (enzyme)
kcat/KM (M^-1s^-1), TF-dependent assay [1]: 1.33e+08 M⁻¹ s⁻¹
kcat/KM, TF-independent assay [1]: 30.7 M⁻¹ s⁻¹
Activity (µmol/sec/µmol), specific activity for mesyl-dFPR-ACC (µmol/sec/µmol) [2]: 2.83

Molecule: WT (NovoSeven®) FVIIa (enzyme)
Activity (µmol/sec/µmol), specific activity for mesyl-dFPR-ACC (µmol/sec/µmol) [2]: 2.31

Molecule: T128N/P129A/S222A/H257A/Q286R/M298Q-FVIIa (enzyme)
kcat/KM (M^-1s^-1), TF-dependent assay [1]: 1.55e+08 M⁻¹ s⁻¹ and 1.73e+08 M⁻¹ s⁻¹
Activity (µmol/sec/µmol), specific activity for mesyl-dFPR-ACC (µmol/sec/µmol) [2]: 1.66

Molecule: A122N/G124S/A175S/S222A/H257A/Q286R/M298Q-FVIIa (enzyme)
kcat/KM, TF-dependent assay [1]: 8.4e+07 M⁻¹ s⁻¹
Activity (µmol/sec/µmol), specific activity for mesyl-dFPR-ACC (µmol/sec/µmol) [2]: 1.99

Molecule: T128N/P129A/A175S/Q286R-FVIIa (enzyme)
kcat/KM (M^-1s^-1), TF-dependent assay [1]: 3.33e+07 M⁻¹ s⁻¹
kcat/KM, TF-independent assay [1]: 3.3 M⁻¹ s⁻¹
Activity (µmol/sec/µmol), specific activity for mesyl-dFPR-ACC (µmol/sec/µmol) [2]: 1.88

Molecule: T128N/P129A/Q286R/H373F-FVIIa (enzyme)
kcat/KM (M^-1s^-1), TF-dependent assay [1]: 6.91e+07 M⁻¹ s⁻¹
kcat/KM, TF-independent assay [1]: 6.6 M⁻¹ s⁻¹
Activity (µmol/sec/µmol), specific activity for mesyl-dFPR-ACC (µmol/sec/µmol) [2]: 2.31

Molecule: Gla swap FIX/T128N/P129A/S222A/Q286R-FVIIa (enzyme)
kcat/KM (M^-1s^-1), TF-dependent assay [1]: 1.47e+08 M⁻¹ s⁻¹ and 1.43e+08 M⁻¹ s⁻¹
kcat/KM, TF-independent assay [1]: 15.5 M⁻¹ s⁻¹ and 21.3 M⁻¹ s⁻¹
Activity (µmol/sec/µmol), specific activity for mesyl-dFPR-ACC (µmol/sec/µmol) [2]: 0.53

Molecule: Gla swap FIX/Q286R/M298Q-FVIIa (enzyme)
kcat/KM (M^-1s^-1), TF-dependent assay [1]: 2.55e+08 M⁻¹ s⁻¹ and 2.3e+08 M⁻¹ s⁻¹
kcat/KM, TF-independent assay [1]: 673 M⁻¹ s⁻¹ and 678 M⁻¹ s⁻¹
Activity (µmol/sec/µmol), specific activity for mesyl-dFPR-ACC (µmol/sec/µmol) [2]: 1.53

Molecule: T128N/P129A/Q286R-FVIIa (enzyme)
kcat/KM (M^-1s^-1), TF-dependent assay [1]: 8.45e+07 M⁻¹ s⁻¹ and 6.2e+07 M⁻¹ s⁻¹
kcat/KM, TF-independent assay [1]: 8.7 M⁻¹ s⁻¹ and 10.5 M⁻¹ s⁻¹
Activity (µmol/sec/µmol), specific activity for mesyl-dFPR-ACC (µmol/sec/µmol) [2]: 1.21

Molecule: {Gla swap FIX/K43I}/Q286R/M298Q-FVIIa (enzyme)
kcat/KM (M^-1s^-1), TF-dependent assay [1]: 2.73e+08 M⁻¹ s⁻¹ and 2.91e+08 M⁻¹ s⁻¹
kcat/KM, TF-independent assay [1]: 902 M⁻¹ s⁻¹ and 794 M⁻¹ s⁻¹
Activity (µmol/sec/µmol), specific activity for mesyl-dFPR-ACC (µmol/sec/µmol) [2]: 1.2

Molecule: Gla swap FIX-FVIIa (enzyme)
kcat/KM (M^-1s^-1), TF-dependent assay [1]: 5.38e+07 M⁻¹ s⁻¹
kcat/KM, TF-independent assay [1]: 41.3 M⁻¹ s⁻¹
Activity (µmol/sec/µmol), specific activity for mesyl-dFPR-ACC (µmol/sec/µmol) [2]: 1.63

Molecule: Gla swap FIX/S222A/T239V/Q286R-FVIIa (enzyme)
kcat/KM (M^-1s^-1), TF-dependent assay [1]: 2.03e+08 M⁻¹ s⁻¹ and 9.94e+07 M⁻¹ s⁻¹
Activity (µmol/sec/µmol), specific activity for mesyl-dFPR-ACC (µmol/sec/µmol) [2]: 0.66

Molecule: V158D/E296V/M298Q-FVIIa (enzyme)
kcat/KM (M^-1s^-1), TF-dependent assay [1]: 1.81e+08 M⁻¹ s⁻¹ and 1.65e+08 M⁻¹ s⁻¹
kcat/KM, TF-independent assay [1]: 1220 M⁻¹ s⁻¹ and 984 M⁻¹ s⁻¹
Activity (µmol/sec/µmol), specific activity for mesyl-dFPR-ACC (µmol/sec/µmol) [2]: 3.28

B5: FVIIa variant Q366I (enzyme)
chain: ANAFLEELRPGSLERECKEEQCSFEEAREIFKDAERTKLFWISYSDGDQCASSPCQNGGSCKDQLQSYICFCLPAFEGRNCETHKDDQLICVNENGGCEQYCSDHTGTKRSCRCHEGYSLLADGVSCTPTVEYPCGKIPILEKRNASKPQGRIVGGKVCPKGECPWQVLLLVNGAQLCGGTLINTIWVVSAAHCFDKIKNWRNLIAVLGEHDLSEHDGDEQSRRVAQVIIPSTYVPGTTNHDIALLRLHQPVVLTDHVVPLCLPERTFSERTLAFVRFSLVSGWGQLLDRGATALELMVLNVPRLMTQDCLQQSRKVGDSPNITEYMFCAGYSDGSKDSCKGDSGGPHATHYRGTWYLTGIVSWGIGCATVGHFGVYTRVSQYIEWLQKLMRSEPRPGVLLRAPFP
kcat/KM, TF-Dependent Indirect Assay [3]: 9.37e+07 M⁻¹ s⁻¹

B6: FVIIa variant S222E (enzyme)
chain: B5 chain with S222E, I366Q
kcat/KM, TF-Dependent Indirect Assay [3]: 5.48e+07 M⁻¹ s⁻¹

B8: FVIIa variant P321Y (enzyme)
chain: B5 chain with P321Y, I366Q
kcat/KM, TF-Dependent Indirect Assay [3]: 4.48e+07 M⁻¹ s⁻¹

B9: FVIIa variant Q286Y (enzyme)
chain: B5 chain with Q286Y, I366Q
kcat/KM, TF-Dependent Indirect Assay [3]: 1.61e+07 M⁻¹ s⁻¹

B10: FVIIa variant Q366V/H373L (enzyme)
chain: B5 chain with I366V, H373L
kcat/KM, TF-Dependent Indirect Assay [3]: 3.07e+07 M⁻¹ s⁻¹

B12: FVIIa variant Q286R/H373A (enzyme)
chain: B5 chain with Q286R, I366Q, H373A
kcat/KM, TF-Dependent Indirect Assay [3]: 5.89e+07 M⁻¹ s⁻¹

B15: FVIIa variant T239N (enzyme)
chain: B5 chain with T239N, I366Q
kcat/KM, TF-Dependent Indirect Assay [3]: 1.64e+07 M⁻¹ s⁻¹

B16: FVIIa variant Q286R/Q366N (enzyme)
chain: B5 chain with Q286R, I366N
kcat/KM, TF-Dependent Indirect Assay [3]: 5.42e+07 M⁻¹ s⁻¹

B17: FVIIa variant A51N (enzyme)
chain: B5 chain with A51N, I366Q
kcat/KM, TF-Dependent Indirect Assay [3]: 1.02e+08 M⁻¹ s⁻¹

B18: FVIIa variant Q366M (enzyme)
chain: B5 chain with I366M
kcat/KM, TF-Dependent Indirect Assay [3]: 6.61e+07 M⁻¹ s⁻¹

B19: FVIIa variant Q366V/H373V (enzyme)
chain: B5 chain with I366V, H373V
kcat/KM, TF-Dependent Indirect Assay [3]: 1.84e+07 M⁻¹ s⁻¹

B21: FVIIa variant S119N/L121S (enzyme)
chain: B5 chain with S119N, L121S, I366Q
kcat/KM, TF-Dependent Indirect Assay [3]: 5.75e+07 M⁻¹ s⁻¹

B23: FVIIa variant Q286R/H373F (enzyme)
chain: B5 chain with Q286R, I366Q, H373F
kcat/KM, TF-Dependent Indirect Assay [3]: 9.08e+07 M⁻¹ s⁻¹

B24: FVIIa variant Q286R/Q366D (enzyme)
chain: B5 chain with Q286R, I366D
kcat/KM, TF-Dependent Indirect Assay [3]: 1.53e+07 M⁻¹ s⁻¹

B28: FVIIa variant Q286R/M298Q/Q366D (enzyme)
chain: B5 chain with Q286R, M298Q, I366D
kcat/KM, TF-Dependent Indirect Assay [3]: 1.91e+07 M⁻¹ s⁻¹

B29: FVIIa variant S222D (enzyme)
chain: B5 chain with S222D, I366Q
kcat/KM, TF-Dependent Indirect Assay [3]: 5.34e+07 M⁻¹ s⁻¹

B30: FVIIa variant Q366L (enzyme)
chain: B5 chain with I366L
kcat/KM, TF-Dependent Indirect Assay [3]: 6.87e+07 M⁻¹ s⁻¹

B31: FVIIa variant S222N (enzyme)
chain: B5 chain with S222N, I366Q
kcat/KM, TF-Dependent Indirect Assay [3]: 6.82e+07 M⁻¹ s⁻¹

B32: FVIIa variant Q286R/M298Q/Q366N (enzyme)
chain: B5 chain with Q286R, M298Q, I366N
kcat/KM, TF-Dependent Indirect Assay [3]: 1.04e+08 M⁻¹ s⁻¹

B34: FVIIa variant Q286R/M298Q/H373F (enzyme)
chain: B5 chain with Q286R, M298Q, I366Q, H373F
kcat/KM, TF-Dependent Indirect Assay [3]: 1.51e+08 M⁻¹ s⁻¹

B36: FVIIa variant H257S/Q366V (enzyme)
chain: B5 chain with H257S, I366V
kcat/KM, TF-Dependent Indirect Assay [3]: 6.71e+07 M⁻¹ s⁻¹

B38: FVIIa variant P321K (enzyme)
chain: B5 chain with P321K, I366Q
kcat/KM, TF-Dependent Indirect Assay [3]: 3.43e+07 M⁻¹ s⁻¹

B39: FVIIa variant H257S/Q286R (enzyme)
chain: B5 chain with H257S, Q286R, I366Q
kcat/KM, TF-Dependent Indirect Assay [3]: 3.93e+07 M⁻¹ s⁻¹

Second part, the molecule after the results:

kcat/KM (M^-1s^-1), TF-dependent assay [1]: 1.86e+08 M⁻¹ s⁻¹ and 1.5e+08 M⁻¹ s⁻¹
kcat/KM, TF-independent assay [1]: 81.6 M⁻¹ s⁻¹ and 212 M⁻¹ s⁻¹
Activity (µmol/sec/µmol), specific activity for mesyl-dFPR-ACC (µmol/sec/µmol) [2]: 1.8
Molecule: T128N/P129A/Q286R/M298Q-FVIIa (enzyme)

kcat/KM (M^-1s^-1), TF-dependent assay [1]: 2.01e+08 M⁻¹ s⁻¹
kcat/KM, TF-independent assay [1]: 1380 M⁻¹ s⁻¹
Activity (µmol/sec/µmol), specific activity for mesyl-dFPR-ACC (µmol/sec/µmol) [2]: 3.26
Molecule: T128N/P129A/V158D/E296V/M298Q-FVIIa (enzyme)

kcat/KM (M^-1s^-1), TF-dependent assay [1]: 6.77e+07 M⁻¹ s⁻¹
Activity (µmol/sec/µmol), specific activity for mesyl-dFPR-ACC (µmol/sec/µmol) [2]: 0.25
Molecule: GlaSwapFIX/S222A/T239I/Q286R-FVIIa (enzyme)

Activity (µmol/sec/µmol), specific activity for mesyl-dFPR-ACC (µmol/sec/µmol) [2]: 2.4
Molecule: WT FVIIa (enzyme)

kcat/KM, TF-Dependent Indirect Assay [3]: 5.25e+07 M⁻¹ s⁻¹
B1: FVIIa variant Q286M (enzyme)
chain: B5 chain with Q286M, I366Q

kcat/KM, TF-Dependent Indirect Assay [3]: 5.46e+07 M⁻¹ s⁻¹
B2: FVIIa variant H216A/S222A (enzyme)
chain: B5 chain with H216A, S222A, I366Q

kcat/KM, TF-Dependent Indirect Assay [3]: 3.64e+07 M⁻¹ s⁻¹
B3: FVIIa variant S222A/H373A (enzyme)
chain: B5 chain with S222A, I366Q, H373A

kcat/KM, TF-Dependent Indirect Assay [3]: 1.11e+07 M⁻¹ s⁻¹
B4: FVIIa variant Q286R/K341D (enzyme)
chain: B5 chain with Q286R, K341D, I366Q

kcat/KM, TF-Dependent Indirect Assay [3]: 1.18e+07 M⁻¹ s⁻¹
B7: FVIIa variant Q286R/M298Q/K341D (enzyme)
chain: B5 chain with Q286R, M298Q, K341D, I366Q

kcat/KM, TF-Dependent Indirect Assay [3]: 7.92e+07 M⁻¹ s⁻¹
B11: FVIIa variant Q286R/Q366V (enzyme)
chain: B5 chain with Q286R, I366V

kcat/KM, TF-Dependent Indirect Assay [3]: 2.02e+07 M⁻¹ s⁻¹
B13: FVIIa variant Q286L (enzyme)
chain: B5 chain with Q286L, I366Q

kcat/KM, TF-Dependent Indirect Assay [3]: 5.53e+07 M⁻¹ s⁻¹
B14: FVIIa variant P321S (enzyme)
chain: B5 chain with P321S, I366Q

kcat/KM, TF-Dependent Indirect Assay [3]: 6.62e+07 M⁻¹ s⁻¹
B20: FVIIa variant H216A/H257A (enzyme)
chain: B5 chain with H216A, H257A, I366Q

kcat/KM, TF-Dependent Indirect Assay [3]: 1.28e+08 M⁻¹ s⁻¹
B22: FVIIa variant H257A/M298Q (enzyme)
chain: B5 chain with H257A, M298Q, I366Q

kcat/KM, TF-Dependent Indirect Assay [3]: 1.86e+08 M⁻¹ s⁻¹
B25: FVIIa variant S222A/H257A/Q286R/Q366V (enzyme)
chain: B5 chain with S222A, H257A, Q286R, I366V

kcat/KM, TF-Dependent Indirect Assay [3]: 8.49e+07 M⁻¹ s⁻¹
B26: FVIIa variant M298Q/H373F (enzyme)
chain: B5 chain with M298Q, I366Q, H373F

kcat/KM, TF-Dependent Indirect Assay [3]: 1.58e+08 M⁻¹ s⁻¹
B27: FVIIa variant H257S/Q286R/Q366V (enzyme)
chain: B5 chain with H257S, Q286R, I366V

kcat/KM, TF-Dependent Indirect Assay [3]: 6.04e+07 M⁻¹ s⁻¹
B33: FVIIa variant S222V (enzyme)
chain: B5 chain with S222V, I366Q

kcat/KM, TF-Dependent Indirect Assay [3]: 5.59e+07 M⁻¹ s⁻¹
B35: FVIIa variant P321E (enzyme)
chain: B5 chain with P321E, I366Q

kcat/KM, TF-Dependent Indirect Assay [3]: 7.13e+07 M⁻¹ s⁻¹
B37: FVIIa variant S222A/M298Q (enzyme)
chain: B5 chain with S222A, M298Q, I366Q
